Data: paper PMC7023490, “An M29 Aminopeptidase from Listeria Monocytogenes Contributes to In Vitro Bacterial Growth but not to Intracellular Infection” (Microorganisms, 2020)

Key:
Assay in all cases: purified protein
Details in all cases: 25 mM Tris-HCl pH 7.4, 37 °C, 0.05 μM enzyme, no added metal mentioned
[1] = substrate: CC(C)C[C@H](N)C(=O)Nc1ccc([N+](=O)[O-])cc1
[2] = substrate: NCCCC[C@H](N)C(=O)Nc1ccc([N+](=O)[O-])cc1
[3] = substrate: N=C(N)NCCC[C@H](N)C(=O)Nc1ccc([N+](=O)[O-])cc1
[4] = substrate: N[C@@H](Cc1ccccc1)C(=O)Nc1ccc([N+](=O)[O-])cc1
[5] = substrate: C[C@H](N)C(=O)Nc1ccc([N+](=O)[O-])cc1

B1: LmAmpII (Listeria monocytogenes EGD-e) (protein)
chain: MTVFSEKLEKYAELIVKVGVNVQPEQKVVIMAPVDAAPLVRLISKYAFEVGAEDVIMDWRDEELGALRYKNAPLRVFESAPVHRVAEKTELAKEGACFISITSEDPDLLNGVDSNKIATFQKTMGGAMSEFRELMQANVVSWTVVAAASQGWAAKVFPDLTPAEQMETLWEAIFETTRINTENPVETWKNHDQTLAAKAESLNEKQFTSLHYTAPGTDLTIGLPKNHLWVGAGSKNKKGHEFMANMPTEEVFCCADKLKVEGYVSSTKPLSYAGNIIDDFKITFEKGRIVGVEAASGEEILKDLIATDEGSHYLGEVALVPDPSPISQSGILFYNTLFDENASNHLAIGSAYAFNVKGGEEMSREELEAAGVNNSLTHVDFMIGSSEMDIDGVTESGEVVPVFRKGDWAF
B1 was tested, and the Km [1] was 95.62 µM, the Km [2] was 165.6 µM and the Km [3] was 24.94 µM. The Km [4] was 399.6 µM and the Km [5] was 340 µM.
